# Source: the DeepSol protein solubility set
# Experiment: soluble on expression in E. coli; label from the status in PepcDB or PDB records
row,Sequence,soluble on expression in E. coli
1,MILGTPKADWLAEFPRLADLIALRPSEWFNPAIAPSAEALADVGLGAADVADASARLQRFAPLIARLFPETAASGGIIESDLVEVATFHDALRQHYAAELPGRLWLKRDSHLPISGSIKARGGIYEVLAHAERLALEHGLVGLDDDYSRLAEADCRAFFARHRIAVGSTGNLGLSIGIIGAALGFQASVHMSADARQWKKDKLRAHGVTVVEYASDYSVAVEQGRREAAGDPYTHFVDDENSRDLFLGYAVAAERLRGQLDAAGIRVDSEHPLFVHLPCGVGGGPGGVAFGLKLAFGDAVHCLFAEPTHSPCMFLGVYTGRHEQVSVQDFGIDNRTAADGLAVGRPSGFVGRAMQRLLDGYYTVDDDELFRLLALLERSQGIRLEPSALAGATGIARVTREPQGYRERMGLTSARLANATHLVWATGGGMVPETEMRAYLERGRSLL,not soluble
2,MILHPRPSPIAAAMYQLRDIGVDAIILHGPSGCCFRTARLLEIDGIRVFTSAMGENDFIFGAMDKLRDVIAEVLEYLKKETPKSEKYKIGIVGTCASMIIGEDLESLIDDFDDIIIPVDIHSGLVDNTVGAIRAMDGALNAGLIDYSEYLEHHHHHH,not soluble
3,MILLSKQTPLGAGRHRKCYTHPDNARRCIKVIYNRDHGGDKEIRRELSYYAHLSRYLTDWSAIPRYYGTVETDCGTGYVYDMITDFNGAPSITLTEFAAQCRYEEDVAVLRRLLKKLKRYLLDNHIVTMSLKPQNILCQRISESEVVPVVCDNLGESTFIPLATWSTWCCERKLERVWQRFIAQPALAVALERDAQPKDKKRLALTSHEALEHHHHHH,not soluble
4,MILSVHILDQQTGKPAPGVEVVLEQKKDNGWTQLNTGHTDQDGRIKALWPEKAAAPGDYRVIFKTGQYFESKKLDTFFPEIPVEFHISKTNEHYHVPLLLSQYGYSTYRGS,soluble
5,MILSVTFSPSEVPLAGAIASISSIKIIAGAACLAFLKISLILFSLSPTHLLNTSGPLTAMKLASLSVATALAKRVLPVPGGPYNKTPLGGVIPSFLNALGYFSGHSTASLSSCFTSSNPPMSSQWTFGTSMRTSLKAEGSTIFKASLEHHHHHH,not soluble
6,MILVNRETRVLVQGITGREGQFHTKQMLSYGTKIVAGVTPGKGGMEVLGVPVYDTVKEAVAHHEVDASIIFVPAPAAADAALEAAHAGIPLIVLITEGIPTLDMVRAVEEIKALGSRLIGGNCPGIISAEETKIGIMPGHVFKRGRVGIISRSGTLTYEAAAALSQAGLGTTTTVGIGGDPVIGTTFKDLLPLFNEDPETEAVVLIGEIGGFDEEEAAAWVKDHMKKPVVGFIGGRSAPKGKRMGHAGAIIMGNVGTPESKLRAFAEAGIPVADTIDEIVELVKKALG,soluble
7,MIMQKRLLNRNSSVVKSRNCLARHQHESSISKLHVSLRLHRCLRPIVRFDFLHNAGSKVCSQNSCPSPQLHVGTMALFHTVFILWPHFCGILWTVHEKLYNYLLSIEVY,soluble
8,MINHKIFPTADAVVKSLADDMLAYSQQGQPVHISLSGGSTPKMLFKLLASQPYANDIQWKNLHFWWGDERCVAPDDAESNYGEANALLFSKINMPAQNIHRILGENEPQAEAERFAQAMAHVIPTENGTPVFDWILLGVGADGHTASLFPGQTDYADANLSVVASHPESGQLRVSKTAKVLQAAKRISYLVLGAGKAEIVEQIHTTPAEQLPYPAAKIHSTSGVTEWYLDSDAAAKIA,soluble
9,MININRYTLSNGLRVIHNEDNTTQMVALNLLYDVGARDEDPDHTGFAHLFEHLMFGGSIHVPDYDTPVQNAGGENNAWTNNDITNYYITLPRQNVETGFWLESDRMLSLDFNPRSLEVQRQVVIEEFKQRNLNQPYGDASHLLRALAYKVHPYQWPTIGKEISHIANATLEEVKAFFFKYYAPDNAILAVTGHITFEETVTLAEKWFGPIPRRNVAP,not soluble
10,MINKTQARRHKRKYKYRSKGNHSRSLLGMHTSPANSSMSQAIYSNDSLTTTDGVLGDESLSSETSIVSFTGENANKQKRQRLSESTENSIPEPAFLRSNVTSLTTSESDDIQQFFLENESLFQIEYKIDYKNYRDYTIVPSFGTVIPKSKCEIALICRPTGKSESDQMTISYKTVDSDNDLANGCFSEMEKIVIDIKGRSQESPIHSIPSSSGSSSTSSPSAKRRNIVDSDSD,not soluble
